Measurements published in patent US11357847B2, “Modified HSV gD protein and vaccine containing same” (KM Biologics Co., Ltd., priority 2017, dated 2022).

Tests used:
[1] = tested on: various anti-gD2 antibodies; assay: Reactivity of gD variants with anti-gD2 antibodies (competitive ELISA); format: binding, human; conditions: for Reactivity with anti-gD2 antibody 1 / Reactivity with anti-gD2 antibody 5 / Reactivity with anti-gD2 antibody 13 / Reactivity with anti-gD2 antibody 72 / Reactivity with anti-gD2 antibody 75 / Reactivity with anti-gD2 antibody 78 / Reactivity with anti-gD2 antibody 82: immobilized gD variant
Excerpt: Each anti-gD2 monoclonal antibody and each gD variant were expressed using an Expi293 expression system.

HSV-2 MS strain = assay: Mouse infection-prevention test of modified gD (genital herpes infection model); format: in vivo, BALB/c mice; parameters: key to Determination (vs gD1-315) / Determination# (vs gD1-315): ++: minimum effective dose based on the Significant difference test in three-fold common ratio relative to gD1-315(WT) of two or more doses stronger; +: those of one dose stronger; ±: those of an equivalent value; conditions: for Determination# (vs gD1-315): minimum effective dose relative to gD1-315(WT)
Description: Immunogenicity test of the modified gD antigen was performed using the wild-type gD antigen gD1-315 (WT) as a positive control and saline as a negative control. A predetermined amount of antigen was dissolved in saline for injection (saline) with MPLA (10 μg/mouse) and CpG (1 μg/mouse) and immunized to mice at a volume of 200 μL/mouse. BALB/c mice (5 weeks old, female) were used for the study and immunized subcutaneously in back at 2-week intervals for a total of 3 times (N=4 cases per group). Two weeks after the final immunization (third dose), blood was collected and serum was prepared for each individual. The prepared serum was serially diluted and assessed for neutralizing antibody-inducing activity against HSV-2 (50% plaque number-reducing activity).
An infection-prevention test in the preventive administration of modified gD antigen was performed using a mouse genital herpes infection model. Similar to the mouse immunogenicity test described above, mice were immunized with the number of N=10 cases per group. Depo-Provera was inoculated subcutaneously at 2 mg/mouse 6 days prior to viral inoculation to improve the multiplicity of infection upon viral inoculation 2 weeks after final immunization (third dose). 5×10^5 PFU/20 μL HSV-2 MS strain was inoculated transvaginally under anesthesia and observed for 21 days. Infection prevention ability was evaluated using survival time (survival rate) as index.
The infection model of the mouse genital herpes infection model was used to evaluate infection prevention ability of various modified gD in preventive administration. The number of animal cases in each group was set to n=10, and wild-type gD (gD1-315) was used as a positive control and saline was used as a negative control. The experiments were performed a total of four times (experiments 1-4) and four doses of 0.1 μg/mouse/time, 0.03 μg/mouse/time, 0.01 μg/mouse/time and 0.003 μg/mouse/time were set for all of the positive control, negative control, and subject modified gD antigen. Depo-Provera was inoculated subcutaneously at 2 mg/mouse 6 days prior to viral inoculation to improve the multiplicity of infection upon viral inoculation 2 weeks after final immunization (third dose). 5×10^5 PFU/20 HSV-2 MS strain was inoculated transvaginally under anesthesia and observed for 21 days. Infection prevention ability was evaluated using survival time (survival rate) as index. Mean values of those were plotted in the graph. A Significant difference test for the negative control group was performed by the Kaplan-Meier method, and those with a minimum effective dose based on the Significant difference test in three-fold common ratio relative to wild type gD of two or more doses stronger were determined to be “++”, those of one dose stronger were determined to be “+”, and those of an equivalent value were determined to be “±”.

[2] = Properties of produced gD variants (aggregates); format: physicochemical; conditions: expressed and purified variant
Excerpt: Four gD1-275-based variants were produced. Since these were FR3-deficient variants, V231W mutations affecting FR3 were not investigated. […] Meanwhile, eight gD1-315-based variants were produced, and none of the variants were less than the original gD1-315 in both properties and expression level.

[3] = Experiment 3, 0.01 μg/head/time
[4] = Experiment 3, 0.03 μg/head/time
[5] = Experiment 3, fourth dose line, 0.03 μg/head/time
[6] = Experiment 4, 0.003 μg/head/time
[7] = Experiment 4, 0.01 μg/head/time
[8] = Experiment 4, 0.03 μg/head/time

B1: gD1-315v3V: gD1-315 with glycochain at SC-F and V231W (protein)
chain: KYALADPSLKMADPNRFRGKNLPVLDQLTDPPGVKRVYHIQPSLEDPFQNASIPITVYYAVLERACRSVLLHAPSEAPQIVRGASDEARKHTYNLTIAWYRMGDNCAIPITVMEYTECPYNKSLGVCPIRTQPRWSYYDSFSAVSEDNLGFLMHAPAFETAGTYLRLVKINDWTEITQFILEHRARASCKYALPLRIPPAACLTSKAYQQGVTVDSIGMLPRFIPENQRTWALYSLKIAGWHGPKPPYTSTLLPPELSDTTNATQPELVPEDPEDSALLEDPAGTVSSQIPPNWHIPSIQDVAPHHAPAAPSNPGHHHHHH
[1]
  Reactivity with anti-gD2 antibody 1: + ((+): 70% or more)
  Reactivity with anti-gD2 antibody 5: − ((−): less than 30%)
  Reactivity with anti-gD2 antibody 13: + ((+): 70% or more)
  Reactivity with anti-gD2 antibody 72: − ((−): less than 30%)
  Reactivity with anti-gD2 antibody 75: − ((−): less than 30%)
  Reactivity with anti-gD2 antibody 78: − ((−): less than 30%)
  Reactivity with anti-gD2 antibody 82: + ((+): 70% or more)
HSV-2 MS strain; [3]
  Mean survival time: 7 days
  Significant difference test (vs saline): * (* 0.01 = < p < 0.05)
HSV-2 MS strain; [4]
  Mean survival time: >21 days
  Significant difference test (vs saline): *** (*** p < 0.001)
HSV-2 MS strain; Experiment 3, 0.1 μg/head/time
  Mean survival time: >21 days
  Significant difference test (vs saline): *** (*** p < 0.001)
HSV-2 MS strain; [5]
  Mean survival time: 6 days
  Significant difference test (vs saline): N.S.
HSV-2 MS strain; Experiment 3
  Determination# (vs gD1-315): ±

B2: gD1-275v3-55: gD1-275 with glycochain at SC-F, linked to T cell epitope peptide DP5 (protein)
chain: KYALADPSLKMADPNRFRGKNLPVLDQLTDPPGVKRVYHIQPSLEDPFQNASIPITVYYAVLERACRSVLLHAPSEAPQIVRGASDEARKHTYNLTIAWYRMGDNCAIPITVMEYTECPYNKSLGVCPIRTQPRWSYYDSFSAVSEDNLGFLMHAPAFETAGTYLRLVKINDWTEITQFILEHRARASCKYALPLRIPPAACLTSKAYQQGVTVDSIGMLPRFIPENQRTVALYSLKIAGWHGPKPPYTSTLLPPELSDTTNATQPELVPEDPEDGPGPGIAFWVRRRAQMAPKPLRIAFWVRRRAQMAPKPLRHHHHHH
modifications: left off: small tags and cut ends
[1]
  Reactivity with anti-gD2 antibody 1: − ((−): less than 30%)
  Reactivity with anti-gD2 antibody 5: − ((−): less than 30%)
  Reactivity with anti-gD2 antibody 13: − ((−): less than 30%)
  Reactivity with anti-gD2 antibody 72: − ((−): less than 30%)
  Reactivity with anti-gD2 antibody 75: − ((−): less than 30%)
  Reactivity with anti-gD2 antibody 78: − ((−): less than 30%)
  Reactivity with anti-gD2 antibody 82: + ((+): 70% or more)
HSV-2 MS strain; [6]
  Mean survival time: 7 days
  Significant difference test (vs saline): N.S.
HSV-2 MS strain; [7]
  Mean survival time: 7.5 days
  Significant difference test (vs saline): N.S.
HSV-2 MS strain; [8]
  Mean survival time: >21 days
  Significant difference test (vs saline): ** (** 0.001 = < p < 0.01)
HSV-2 MS strain; Experiment 4, 0.1 μg/head/time
  Mean survival time: >21 days
  Significant difference test (vs saline): ** (** 0.001 = < p < 0.01)
HSV-2 MS strain; Experiment 4
  Determination# (vs gD1-315): +
[2]
  Properties of the variant (aggregates): presence of aggregates was confirmed

B3: gD1-275 (protein)
chain: KYALADPSLKMADPNRFRGKNLPVLDQLTDPPGVKRVYHIQPSLEDPFQPPSIPITVYYAVLERACRSVLLHAPSEAPQIVRGASDEARKHTYNLTIAWYRMGDNCAIPITVMEYTECPYNKSLGVCPIRTQPRWSYYDSFSAVSEDNLGFLMHAPAFETAGTYLRLVKINDWTEITQFILEHRARASCKYALPLRIPPAACLTSKAYQQGVTVDSIGMLPRFIPENQRTVALYSLKIAGWHGPKPPYTSTLLPPELSDTTNATQPELVPEDPED
[1]
  Reactivity with anti-gD2 antibody 1: − ((−): less than 30%)
  Reactivity with anti-gD2 antibody 5: + ((+): 70% or more)
  Reactivity with anti-gD2 antibody 13: + ((+): 70% or more)
  Reactivity with anti-gD2 antibody 72: + ((+): 70% or more)
  Reactivity with anti-gD2 antibody 75: + ((+): 70% or more)
  Reactivity with anti-gD2 antibody 78: + ((+): 70% or more)
  Reactivity with anti-gD2 antibody 82: + ((+): 70% or more)
[2]
  Properties of the variant (aggregates): Aggregation

B4: gD1-275v3: gD1-275 with glycochain at P50 (SC-F) (protein)
chain: KYALADPSLKMADPNRFRGKNLPVLDQLTDPPGVKRVYHIQPSLEDPFQNASIPITVYYAVLERACRSVLLHAPSEAPQIVRGASDEARKHTYNLTIAWYRMGDNCAIPITVMEYTECPYNKSLGVCPIRTQPRWSYYDSFSAVSEDNLGFLMHAPAFETAGTYLRLVKINDWTEITQFILEHRARASCKYALPLRIPPAACLTSKAYQQGVTVDSIGMLPRFIPENQRTVALYSLKIAGWHGPKPPYTSTLLPPELSDTTNATQPELVPEDPEDHHHHHH
[1]
  Reactivity with anti-gD2 antibody 1: − ((−): less than 30%)
  Reactivity with anti-gD2 antibody 5: − ((−): less than 30%)
  Reactivity with anti-gD2 antibody 13: − ((−): less than 30%)
  Reactivity with anti-gD2 antibody 72: − ((−): less than 30%)
  Reactivity with anti-gD2 antibody 75: − ((−): less than 30%)
  Reactivity with anti-gD2 antibody 78: − ((−): less than 30%)
  Reactivity with anti-gD2 antibody 82: + ((+): 70% or more)
[2]
  Properties of the variant (aggregates): no change in properties

B5: gD1-275v5: gD1-275 with glycochains at R186 (SC-A) and P50 (SC-F) (protein)
chain: KYALADPSLKMADPNRFRGKNLPVLDQLTDPPGVKRVYHIQPSLEDPFQNASIPITVYYAVLERACRSVLLHAPSEAPQIVRGASDEARKHTYNLTIAWYRMGDNCAIPITVMEYTECPYNKSLGVCPIRTQPRWSYYDSFSAVSEDNLGFLMHAPAFETAGTYLRLVKINDWTEITQFILEHRANASCKYALPLRIPPAACLTSKAYQQGVTVDSIGMLPRFIPENQRTVALYSLKIAGWHGPKPPYTSTLLPPELSDTTNATQPELVPEDPEDHHHHHH
[1]; FIG. 13
  Relative reactivity with antibody No. 82 (gD1-315 wild-type set to 1): substantially similar reactivity
[1]
  Reactivity with anti-gD2 antibody 1: − ((−): less than 30%)
  Reactivity with anti-gD2 antibody 5: − ((−): less than 30%)
  Reactivity with anti-gD2 antibody 13: − ((−): less than 30%)
  Reactivity with anti-gD2 antibody 72: + ((+): 70% or more)
  Reactivity with anti-gD2 antibody 75: − ((−): less than 30%)
  Reactivity with anti-gD2 antibody 78: − ((−): less than 30%)
  Reactivity with anti-gD2 antibody 82: + ((+): 70% or more)
[2]
  Properties of the variant (aggregates): no change in properties
